Assay results as given in a protein production outcome set (Wang et al. 2014).

Experiment: label from the status in PepcDB records
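Note: failed if final PepcDB status was selected cloned or expressed and not failed if soluble or beyond.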

| Sequence | protein production |
| --- | --- |
| MMKKAGLYIHIPFCLQKCNYCDFFSVRAGRFKNILSGHLSPFVLRLAEDIKIQADKYSINEWDTVYIGGGTPSLLSPDDLYYLSSQIPAAQKNPHREFTVEINPEDLTKDFLSAAVSGGINRFSVGIQSLNDEVLSACKRRGCRKMSLSALELLRSQKGLILSCDLIAGLNKQSLGILKDDIQTLLHFKPEHFSLYALCSNTKLPPEKDDEIAELWSYGKDILEKNSYNKYEVSNFSYKNLYKSIHNEKYWRLEDYIGVGPGAFGSIFFDRKVLHANAHANALRFSAIKNIEKWMTLKNRDEVYEYETIDEKEFIEEAFMMGLRLTEGIDRSFFKSRFGKDISVFAGKTISKWLDRNEAVLTEKRFYLTEKGFLYLNLFLQELFQEIDSLF | failed |
| MDPEEEAFDAIRRFARAENINAASVTAIGAFATATLAFFDLKTQDYQEIPVAEQSEVLTLLGDITLDENGVPNPHLHVVLGFADGSTRGGHFLKGLVRPTLEVVIRETPAELRRSYNREFGIALIDPAKLEHHHHHH | not failed |
| MRSQPTVSVIVPARNEAGNIAAAVERLPELGAETELIFVEGHSRDQTWETIEQTVAEYQGPLKLLACRQTGKGKADAVRLGFDKASGDILMILDADLTVQPEDLGHFYRAIASGRGEFINGSRLVYPRSRLAMPGLNTLANRTFALIFSFLLGQPLKDTLCGTKVLWKTDYDRVAAGRKYFGDFDPFGDFDLLFGAAKLGLEIVEVPVRYQERSYGSSNIAHVREGLILARMCLYAAGKLKFPLEHHHHHH | failed |
| MGGDSVAIFTADMSVSGELRNDIELHLRRGIESDALRLVYLPEVDLRTGDIVGTEALVRWQHPTRGLLAPGCFIPVAESINLAGELDRWVLRRACNEFSEWQSAGLGHDALLRINVSAGQLVTGGFVDFVADTIGQHGLDASSVCLEITENVVVQDLHTARATLARLKEVGVHIAIDDFGTGYSAISLLQTLPIDTLKIDKTFVRQLGTNTSDLVIVRGIMTLAEGFQLDVVAEGVETEAAARILLDQRCYRAQGFLFSRPVPGEAMRHMLSARRLPPTCILEHHHHHH | failed |
| MKRFIVGIDLGTSNTVVAYVEAGGDAIRVFDVDQLVAPGEVGARPLLPSARYHPAPGEFAPGELQLPWRDAEAGDAADAGDAPPAVIGTLARTLGAQVPGRLVTSAKSWLSHASVDRLAPILPWGAADAGGKVSPVAASASYLAHVRAAWNRRFPDAPLEQQDVVLTVPASFDDGARSLTLEAARLAKLPALRLLEEPQAAFYDWLFHHRDSLREELARTRLVLVCDVGGGTTDLTLIKVHAEDGEPQLTRIGVGDHLMLGGDNMDLALARVAEARLARDGGARLSAASLSQLVERCRAAKERLLDANPPDSVGVTLLGAGARLVGGARKTELGRAEVEQIVVDGFFPAGGPDDLPRRSRAALVEFGLPYAADAAVTRHVAAFLHRLAAQSRDALGAAGASDRALPVPDTLLLNGGVFRSRALAERVAGVLGDWRGQPLHVLRNDHPDVAVARGAVAYGLARAGRAPRIGGGSPRSYFLVVDDGAHASRGVCVLPRGTAEGHDVRLDDRVFALRLGHPVRFHLASTVADHAWRAGELADLGAGGFVRLPPVATVVRRQDAGGASERLVKLTTSLTEVGTLDMRCIATDDSSQRWQLEFQLRREPAGGGDAADASRHPSLDEAIELIDRSFGARLANVDPKEVRRLRGQLEQLLGARDAWDIALLRELFGALWARAGRRRRSADHERVWLNLAGYCVRPGFGHPLDDWRVAQLWTLFDDGIQYVNDAQVWSEWWTLWRRAAGGLDDDAQREALDAMAWLQEAARAKRPKLPFDAAKIGDMDIVRLSASLERVPVERKIALGEDLLARLRRPAENHQCWWAIGRIGARRPLYGSAHGVVPPDVAGRWLDAILAVDWKKVEPAAFAAAQIARMTGDRSSDVAADVRERVVRRLAAMNASDAWVRMVSEVVALDSADTGRAFGESLPAGLKLVAD | failed |
| MQRVAQWAADVPEETLNLLELSQVAGVSLRQLQSAFKAFTGMAPSQWLRLRRLNSAHRELLSRGPTETTVAEVAMHWSFWHLGRFSSSYRALFKELPSQTLKRSAVARR | failed |
| MKHPDALRIALVGIGKIARDQHVPTIAARDDVQLVATVSRHGTVDGVPAYHTLEDAFAAQPQIEAVALCTPPVGRHALAQAALAAGRHVFLEKPPAATLAEIHDLQDVAQRAQRTLFTSWHSRCAAGVEPARAWLADKQLVRAHITWKEDIRHWHPGQDWILEPGGMGVFDPGINALSIATHLLPRSLALRDAELHTPENRQAPLYARLAFVDTAGLPVTAEFDFLQTGHQRWDIEVETTAGMLMLSEGGAKLRIEGQLQALPASSEYDGLYGRFVQLVRAGQSEVDIAPFVHVADAFMLGARQVTAPFAW | failed |
| MRLTARSEPSSAPFPSGTGRQIGADCNGPSACQALQFTPFCPSRDNEMSDWSLDQARKTYSIPHWADGYFDVNDAGHVVVRPTADGPAVSLPEVVDAARAAGAKLPLLVRFPDILGQRLGKLQAAFAQAQADWDYAGGYTAVYPIKVNQHRGVAGTLASHHGEGFGLEAGSKPELMAVLALSRPGGLIVCNGYKDREYIRLALIGRKLGLQTFIVIEKPSELNLVLEEARALDVKPGLGVRMRLASLGAGKWQNSGGDKAKFGLSPRQVLDLWKSLRDTEYADSLNLLHFHMGSQISNVRDIANGMREATRYFVELSRLGAKISHVDVGGGLGIDYEGTRSRSYCSINYGLHSYASNIVQPLASACEEHGLPPPRIVTECGRAMTAHHAVLIANVSEVEQAPEGRVPDAHDDEPAAIRHLREIHDELDVRPAVELFQEAQHFHAEGLSAYALGQIDLTHRARIDDLFYAIAHGVRARLSFDEKSHRPVLDELNERLVDKYFVNFSVFESIPDVWAIDQVFPIVPIERLNEAPQRRGIIADMTCDSDGMVKTYVENESLDSSLPLHGLNPGESYRIGFFLVGAYQEILGDIHNLFGDTDAVEVAVDGTGYRIAQQRRGDTTDVMLDYVGYQLDTLRATYAERIAAAQLPPERAQELHDALEAGLTGYTYLSDEPLG | failed |
| MNERRKAELVLLGATFIWGSTFPVMKIGVEDFPPITFIALRFGIASFVLFLALRKHIRKDALFPGLILGFTLFLGHGFQIVGLKYTTPSNSAFITSLYVVFTPFIAFLFFRKGLKMFDAFSLSLAVIGLYLISNAELRLNYGDALTVVAALSFAFQIVLVEYFGNLGVGLAFWQIFWNFILSTVYAGIFEGISLPSDPKVLGGIIYTGIFATALSFTLQVKYQPKVESYKAAIIYSSEPIFAHLLALAFLNDRLPPKGYLGAFLILLAVWLELYQERKNY | failed |
| MDLALAQVDSTVSGLYDALDLIGVLLNGIIGGTIARQRGYDIIGFLFLALFSALGGGMIRDMLIQQGTVAAIDNQIYLALAFSGALIAMAVNFKGRVWELFKVHGDAIVLGVWAVTGSVKAMNAGVAPLPSIFMGVLTAVGGGMVRDVATGQTPTIFGGGTLYAVPATLSATSMVIFHSFDQVILGMIISPFLGIALAVTAYWCGWVIPVNTDFAPVNLTVSQLRAMLSKAERKDKDQK | failed |
| SHHKVSVSPVVHVRGLCESVVEADLVEALEKFGTICYVMMMPFKRQALVEFENIDSAKECVTFAADVPVYIAGQQAFFNYSTSKRITRPGN | not failed |
| MNIAEQMKDVLKEEIKAAVLKAGLAEESQIPNVVLETPKDKTHGDYSTNMAMQLARVAKKAPRQIAEEIVAHFDKGKASIEKLDIAGPGFINFYMNNQYLTKLIPSVLEAGEAYG | failed |
| MELFTLGACRQVGKSCFVLKTSEGLVMLDCGLHPSYQDDRRYPNFSLAFSYGPLKAVFITHCHADHVGALPILTERWGYDGPIYMSEPTRKLSYYILEECVGSWGGDDEWTDSSRSEWSYTQREVESCLTKVTIMEPGQSISVGENVQVHSWMAGHVLGAYMFSIVVDNHRILYTGDFTSCPTFHLPPARVDDIPYPPDVILSEATYATSFKDGRLNNQVEFIQNVLDCLLDGGKVLVPVFAIGRAQELLLLLGK | not failed |
| MFVSLLPLLLLTLVVGTLAGGEAFAERIVTAAGDVLTPAASTLLEDALTSGAGRGGATVLGVGVTLWSALKVFRGLDTAFSRVYGTDGPDSIVREIVDGLAALGGIGIALVGLGIIGAFGTVLGVQVALGGLALVPVLAVAFLPLYYLFPDQEMTLREAVPGAVFAGGGWTLLGTGFNVYAAQADSYQVYGVIGGVLLLVTWFYFAGQVLLVGAAVNAALADRQLQQVSRRRSGKAMSEDADETDTPPPAGTGPTGRDTDTLTDEELQELREEFESFREDIEGRTLHRDEVRSDLKQYVRRRMRRGHARQWGPYIVLLYGTIMTLGAFYYLKGLWAVLAMLVIWLSVLGLYAIMIAVGVTLTATGLPGRLVDRVRDWRQ | failed |
